Laboratory results from patent publication US11357816B2, “Ligand controling interaction between gags with their effector molecules and use thereof” (CENTRE NATIONAL DE LA RECHERCHE SCIENTIFIQUE (CNRS), priority 2018, dated 2022).

Target: T1, Sema-3A (Mus musculus, UniProt O08665)
T1 construct: Visual cortex of adult mice were dissected and lysed in homogenization buffer; from tissue; host or cells: adult mouse visual cortex
T1 sequence (O08665 21-772): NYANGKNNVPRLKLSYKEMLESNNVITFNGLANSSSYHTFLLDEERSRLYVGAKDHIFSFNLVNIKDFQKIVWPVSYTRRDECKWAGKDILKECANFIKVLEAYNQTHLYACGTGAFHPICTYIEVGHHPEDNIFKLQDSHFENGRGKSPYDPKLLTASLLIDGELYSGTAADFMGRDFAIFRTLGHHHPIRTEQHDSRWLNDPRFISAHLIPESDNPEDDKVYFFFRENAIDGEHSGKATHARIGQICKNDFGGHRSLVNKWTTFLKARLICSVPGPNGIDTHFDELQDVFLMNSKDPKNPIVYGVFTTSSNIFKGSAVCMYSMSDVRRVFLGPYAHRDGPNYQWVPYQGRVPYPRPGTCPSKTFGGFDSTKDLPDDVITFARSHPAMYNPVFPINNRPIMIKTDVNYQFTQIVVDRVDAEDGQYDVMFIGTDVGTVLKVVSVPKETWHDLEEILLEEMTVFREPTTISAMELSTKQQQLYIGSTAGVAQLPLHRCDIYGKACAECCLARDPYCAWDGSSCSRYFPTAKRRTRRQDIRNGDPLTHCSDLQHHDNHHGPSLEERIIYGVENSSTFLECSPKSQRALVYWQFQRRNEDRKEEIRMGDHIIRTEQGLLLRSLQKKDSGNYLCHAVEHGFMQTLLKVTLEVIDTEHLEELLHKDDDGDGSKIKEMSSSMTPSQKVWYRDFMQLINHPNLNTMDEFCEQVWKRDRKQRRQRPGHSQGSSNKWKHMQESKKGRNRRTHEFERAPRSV
Assay: Ligand pull-down with lysates of adult mouse visual cortex, western blot for Sema-3A
Format: binding
Conditions: ligand pre-incubated with 50 nmol peptide
Procedure: Visual cortex of adult mice were dissected and lysed in homogenization buffer (0.32 M sucrose, 5 mM HEPES, 10 mM MgCl2 and protease inhibitors). Samples were centrifuged (8 min, 1700 g) at 4° C. and the supernatant was incubated 2 hours at 37° C. with 5 nmol of GAG mimics. For the competition assay, ligands were pre-incubated 30 min with 50 nmol of RK-, AA- or SC-peptide at 37° C. prior to incubation overnight at 4° C. with streptavidin-coupled Dynabeads (Life technologies). The loaded beads were washed with homogenization buffer and heated 10 min at 95° C. in Laemmli buffer (with DTT) to detach proteins for western blot analysis.
Immunoprecipitated proteins were separated on NuPAGE 4-12% Bis-Tris pre-cast gels (Invitrogen) for 1 h at 200 V and transferred onto a methanol-activated PVDF membrane at 400 mA for 1 h. Membranes were blocked with 5% non-fat dry milk for 1 h before incubation with primary antibody anti-Sema3A (rabbit, 1/1000, Millipore) overnight at 4° C. […] Membranes were digitized with an LAS-4000 (Fujifilm) and quantified by densitometry with ImageJ.
To measure the in vivo activity and specificity of biotinylated GAG mimics, we performed biochemical and immunohistochemical analyses. […] We first focused on Sema-3A, as cortical Otx2 levels are too low to be reliably detected biochemically.

RKQRRERTTFTRAQL [RKpep] was tested, and the “disruption of Sema-3A interaction with (EC′AC′)6 by competing peptide” value was “specifically disrupts Sema-3A interaction”.
